Drawing on patent publication US20230348569A1, this text covers Binding Signal (absorbance and t½ (dissociative half-life) for four molecules.

Positions count from the first letter of the chain named.

B1: mAb11006 (antibody, V domains shown)
VH: EVQLVESGGGLVQPGGSLRLSCAASGFIVSRNYMSWVRQAPGKGLEWVSVIYSGGSTFYADSVKGRFTISRHNSKNTLYLQMNSLKAEDTAVYYCARELRGYFDYWGQGTLVTVSS
VL: DIQLTQSPSFLSASVGDRVTITCWASQGISSYLAWYQQKPGKAPKLLIYAASTLQSGVPSRFSGSGSGTEFTLTISSLQPEDFATYYCQLLNSYPYTFGQGTKLEIK
B2: mAb11008 (antibody, V domains shown)
VH: EVQLVESGGGLVQPGGSLRLSCAASGFTVSSNYMTWVRQAPGKGLEWVSVIYSGGSTFYADSVKGRFTISRHNSENTLYLQMNSLRAEDTAVYYCARDLAAAGTDYWGQGALVTVSS
VL: B1 VL with E81D, L90H, P95L
B3: mAb11004 (antibody, V domains shown)
VH: QVQLVESGGGVVQPGRSLRLSCVASGFTFSIYGMDWVRQAPGKGLEWVAVISYDGSNKYYADSVKGRFTISRDNSKNTLYLQMNSLRPEDTAVYYCAKDREAAADAFDIWGQGTMVTVSS
VL: DIQMTQSPSSVSASVGDRVTITCRASQGISSWLAWYQQKPGKAPKLLIYAASSLHSGVPSRFSGSGSGTDFTLTISSLQPEDFATYYCQQANSFRLTFGGGTKVEIK
B4: mAb10998 (antibody, V domains shown)
VH: EVQLVESGGGLVHPGGSLRLSCAASGLTVSSNYMSWVRQAPGKGLEWVSVIYSGGSTYYADSVKGRFTISRHNSKNTLFLQMNSLRAEDTAVYYCARDRPITGTTLDVWGQGTTVTVSS
VL: DIQMTQSPSSLFASVGDRVTITCRASQSISSYLNWYQQKPGKAPKLLIYAASSLQSGVPSRFSGSGSGTDFTLTISSLQPEDFAFYYCQQTYSTPPITFGQGTRLEIK

The first test has as its target SARS-CoV-2-S-RBD-mmH (SARS-CoV-2). The settings on record: remark: other sources report otherwise.
On to B1, for which the Binding Signal (absorbance at 450 nm) (absorbance at 450 nm) worked out at 2.62.
On the same count and under the same terms, to B2 belongs 2.91; to B3, 2.91.
On the same count and under the same terms, to B4 belongs 2.83.

In another test the target is SARS-CoV-2 RBD extracellular domain expressed with a C-terminal myc-myc-hexahistidine tag (SARS-COV-2 RBD-MMH) (SARS-CoV-2). As to conditions: remark: other sources report otherwise.
The molecule B1 had a t½ (dissociative half-life) of 31.5 min.
In turn, B2 came in with a t½ (dissociative half-life) of 2.9 min.
Molecule B3 gave a t½ (dissociative half-life) of 3.7 min.
On the same count and under the same terms, to B4 belongs 0.5 min.
